In US20060257397A1 (CRUCELL HOLLAND B V, published 2006):
Substitutions are numbered along the chain they refer to.

T1: human CD1d (human, UniProt P15813 20-335)
T1 construct: whole, on cells; also called C1R-CD1d; CR1-CD1d
T1 sequence (looked up): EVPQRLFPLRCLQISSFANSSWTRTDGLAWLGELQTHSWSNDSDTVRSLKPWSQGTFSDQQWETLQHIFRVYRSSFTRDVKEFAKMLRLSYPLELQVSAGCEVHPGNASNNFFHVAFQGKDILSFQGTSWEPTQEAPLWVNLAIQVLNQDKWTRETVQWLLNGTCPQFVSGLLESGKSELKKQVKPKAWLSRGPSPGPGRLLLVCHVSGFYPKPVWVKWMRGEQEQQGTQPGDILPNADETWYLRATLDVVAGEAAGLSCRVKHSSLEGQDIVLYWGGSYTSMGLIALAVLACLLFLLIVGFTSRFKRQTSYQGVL

T2: murine CD1d (mouse, UniProt P11609 22-336)
T2 construct: whole, on cells; also called mouse thymocytes
T2 sequence (looked up): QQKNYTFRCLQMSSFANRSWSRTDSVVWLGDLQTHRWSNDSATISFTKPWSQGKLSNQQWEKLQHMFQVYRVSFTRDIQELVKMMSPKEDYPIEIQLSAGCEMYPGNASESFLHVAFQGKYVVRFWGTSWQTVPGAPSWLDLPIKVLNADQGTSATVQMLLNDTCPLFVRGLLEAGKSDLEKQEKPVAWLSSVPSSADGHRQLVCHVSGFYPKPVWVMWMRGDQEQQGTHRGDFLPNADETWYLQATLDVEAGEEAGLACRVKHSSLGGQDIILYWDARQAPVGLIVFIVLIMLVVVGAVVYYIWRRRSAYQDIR

T3: human CD1c (human, UniProt P29017 18-333)
T3 construct: whole, on cells; also called C1R-CD1c; CR1-CD1c
T3 sequence (looked up): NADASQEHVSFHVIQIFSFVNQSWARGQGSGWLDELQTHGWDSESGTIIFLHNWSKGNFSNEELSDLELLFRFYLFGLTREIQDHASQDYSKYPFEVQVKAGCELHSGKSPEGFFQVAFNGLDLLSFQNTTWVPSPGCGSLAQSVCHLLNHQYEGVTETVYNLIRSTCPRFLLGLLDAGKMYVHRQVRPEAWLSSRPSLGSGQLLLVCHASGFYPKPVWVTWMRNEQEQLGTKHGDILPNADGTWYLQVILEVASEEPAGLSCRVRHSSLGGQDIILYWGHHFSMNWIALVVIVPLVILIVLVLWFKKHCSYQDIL

B1: human anti-human CD1a monoclonal antibody CR2117 (antibody, human IgG1, kappa, V domains shown)
VH: EVQLVESGGGLVHPGGSLRLSCAGSGFTFSSYAMHWVRQAPGKGLEWVSAIGTGGGTYYADSVKGRFTISRDNAKNSLYLQMNSLRAEDTAVYYCARSTPWFSFDYWGQGTLVTVSS
VL: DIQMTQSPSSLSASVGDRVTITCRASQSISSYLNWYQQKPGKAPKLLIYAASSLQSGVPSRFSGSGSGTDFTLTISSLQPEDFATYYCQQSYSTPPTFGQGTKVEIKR
notes: Fully human IgG1 kappa made from scFv SC02-117; unlabeled or biotinylated; also called 02-117
B2: human anti-human CD1a monoclonal antibody CR2118 (antibody, human IgG1, kappa, V domains shown)
VH: B1 VH with G52S, T99A, P100W, F102L, Y106S
VL: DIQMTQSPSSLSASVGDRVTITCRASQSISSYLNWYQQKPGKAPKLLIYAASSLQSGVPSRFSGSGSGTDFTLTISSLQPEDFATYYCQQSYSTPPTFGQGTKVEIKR
notes: Fully human IgG1 kappa made from scFv SC02-118; unlabeled or biotinylated; also called 02-118
B3: human anti-human CD1a monoclonal antibody CR2114 (antibody, human IgG1, kappa, V domains shown)
VH: EVQLVESGGGLVQPGGSLRLSCAASGFTFSSYSMNWVRQAPGKGLEWVSYISSSSSTIYYADSVKGRFTISRDNAKNSLYLQMNSLRDEDTAVYYCAKETWWQSFDYWGQGTLVTVSS
VL: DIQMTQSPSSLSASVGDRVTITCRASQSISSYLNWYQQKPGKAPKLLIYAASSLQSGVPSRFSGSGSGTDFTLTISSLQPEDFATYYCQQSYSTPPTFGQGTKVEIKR
notes: Fully human IgG1 kappa made from scFv SC02-114; unlabeled or biotinylated; also called 02-114
B4: human anti-human CD1a monoclonal antibody CR2113 (antibody, human IgG1, kappa, V domains shown)
VH: QVQLQESGAGLLKPSETLSLTCAVYGGSFSGYYWSWIRQPPGKGLEWIGYIYYSGSTNYNPSLKSRVTISVDTSKNQFSLKLSSVTAADTAVYYCAKAPYMMYFDSWGQGTLVTVSS
VL: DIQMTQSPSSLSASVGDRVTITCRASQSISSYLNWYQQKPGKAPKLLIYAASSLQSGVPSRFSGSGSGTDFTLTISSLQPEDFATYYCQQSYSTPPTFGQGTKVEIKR
notes: Fully human IgG1 kappa made from scFv SC02-113, expressed in 293T cells; Used unlabeled, biotinylated or Alexa488-labeled depending on the assay; also called 02-113
B5: human anti-human CD1a monoclonal antibody CR2115 (antibody, human IgG1, V domains shown)
VH: QVQLVQSGAEAKKPGASVKVSCKASGYTFTGYYMHWVRQAPGQGLEWMGWISAYNGNTNYAQKLQGRVTMTTDTSTSTAYMELRSLRSDDTAVYYCARSQMPSYFDYWGQGTLVTVSS
VL: SSELTQDPAVSVALGQTVRITCQGDSLRSYYASWYQQKPGQAPVLVIYGKNNRPSGIPDRFSGSSSGNTASLTITGAQAEDEADYYCNSRDSSGNHVVFGGGTKLTVLG
notes: Fully human IgG1 lambda made from scFv SC02-115; also called 02-115

Tests used:
human CD1d = target: T1, human CD1d; assay: flow cytometry on C1R-CD1d transfectant
Description: (§1) The human anti-CD1a IgG1 antibodies were validated for their ability to bind to CD1a transfected cell lines essentially as described for scFvs (see Example 3). The purified anti-CD1a antibodies were diluted to various concentrations (depicted in the figures) and detected with mouse anti-human IgGκ labeled with FITC or FITC-labeled streptavidin in the case of biotinylated human anti-CD1a antibodies. In addition to the cell lines C1R-CD1a and C1R mock transfected described in Example 3, the cell lines C1R-CD1b , C1R-CD1c , C1R-CD1d and B16-CD1a and B16 mock transfected were tested. Each staining was repeated three times and compared to the negative control irrelevant isotype control antibody called CR2027 using the Kolmogorov-Simov test. To calculate K-S statistics, an overlay of histograms of isotype control antibody and anti-CD1a antibody was made. The log shift between the peaks of the histograms was determined and used to calculate the D-value. The greater the log shift of the anti-CD1a antibody response peak from the isotype control antibody response peak, the larger the D-value.
(§2) No specific staining of any of the six human anti-CD1a monoclonal antibodies was detected on the C1R-CD1b or C1R-CD1d transfectants (see FIG. 4). Slight, but significant, staining (p<0.05) was detected for the two antibodies CR2114 and CR2117 on C1R-CD1c transfectants (see FIG. 4). […] In addition, staining was also carried out on freshly prepared mouse thymocytes, which express murine […] at low levels.

murine CD1d [1] = target: T2, murine CD1d; assay: flow cytometry on freshly prepared mouse thymocytes
murine CD1a = target: T4, murine CD1a (mouse); assay: flow cytometry on mouse thymocytes, K-S statistics against isotype control
T4 construct: whole, on cells; no such UniProt entry is known to me (mice are known to carry only CD1d genes); also called mouse thymocytes
Description: as §1, §2

murine CD1d [2] = target: T2, murine CD1d; assay: as above
Description: as §1, §2

human CD1a [3] = target: T5, human CD1a (human, UniProt P06126 17-327); assay: flow cytometry on B16-CD1a transfectants, biotinylated antibody detected with FITC-labeled streptavidin; D-value versus isotype control CR2027
T5 construct: whole, on cells; also called C1R-CD1a; CR1-CD1a
Description: as §1
(§3) Binding curves were generated for the antibodies CR2113, CR2114, CR2117 and CR2118 by measuring binding on B16-CD1a transfected cells with FACS as above using the concentrations of antibody ranging from 0.01 to 10 μg/ml. […]

human CD1c = target: T3, human CD1c; assay: flow cytometry on C1R-CD1c transfectant
Description: as §1
No specific staining of any of the six human anti-CD1a monoclonal antibodies was detected on the C1R-CD1b or C1R-CD1d transfectants (see FIG. 4). Slight, but significant, staining (p<0.05) was detected for the two antibodies CR2114 and CR2117 on C1R-CD1c transfectants (see FIG. 4). […]

human CD1b = target: T6, human CD1b (human, UniProt P29016 18-333); assay: flow cytometry on C1R-CD1b transfectant
T6 construct: whole, on cells; also called C1R-CD1b; CR1-CD1b
Description: as §1, §2

human CD1a [4] = target: T5, human CD1a; assay: flow cytometry on B16-CD1a transfectants, unlabeled antibody detected with FITC-labeled mouse anti-human IgG kappa; D-value versus isotype control CR2027
Description: as §1, §3

human CD1a [5] = target: T5, human CD1a; assay: competition flow cytometry on B16-CD1a cells: unlabeled antibody for 30 min, then biotin-labeled CR2114 at 2.5 µg/ml, FITC-streptavidin
Description: (§4) B16 mouse melanoma cells expressing human CD1a were stained with unlabeled CR2113, CR2114, CR2117, CR2118 or the negative control CR2027 at different concentrations (0.1, 0.3, 1, 3, 10, 30, 50, 100 μg/ml) for 30 minutes and then stained with one of the above antibodies labeled with biotin as described above for five minutes at a concentration of 2.5 μg/ml. Detection was by FITC-labeled streptavidin incubated for 20 minutes. Furthermore, staining was performed as described above (see Example 3). Each staining was done three successive times and the D-value calculated with K-S statistics (see above). The staining of unlabeled control antibody CR2027 is shown by the dotted line staining using the test antibody is depicted with a solid line. CR2113 was able to compete with itself in a dose dependent manner, however none of the other antibodies could compete with biotinylated CR2113 for binding (see FIG. 6A). […] In contrast, unlabeled CR2113 was able to compete for binding of CR2114 (see FIG. 6B), CR2117 (see FIG. 6C) and CR2118 (see FIG. 6D) to B16-CD1a transfectants in a concentration dependent manner. Neither CR2117 nor CR2118 was able to compete with CR2114 for binding to CD1a. This could be due to sub-optimal affinity.

human CD1a [6] = target: T5, human CD1a; assay: competition flow cytometry on B16-CD1a cells: unlabeled antibody for 30 min, then biotin-labeled CR2113 at 2.5 µg/ml, FITC-streptavidin
Description: as §4

human CD1a [7] = target: T5, human CD1a; assay: competition flow cytometry on B16-CD1a cells: unlabeled antibody for 30 min, then biotin-labeled CR2118 at 2.5 µg/ml, FITC-streptavidin
Description: as §4

T6 sequence (P29016 18-333): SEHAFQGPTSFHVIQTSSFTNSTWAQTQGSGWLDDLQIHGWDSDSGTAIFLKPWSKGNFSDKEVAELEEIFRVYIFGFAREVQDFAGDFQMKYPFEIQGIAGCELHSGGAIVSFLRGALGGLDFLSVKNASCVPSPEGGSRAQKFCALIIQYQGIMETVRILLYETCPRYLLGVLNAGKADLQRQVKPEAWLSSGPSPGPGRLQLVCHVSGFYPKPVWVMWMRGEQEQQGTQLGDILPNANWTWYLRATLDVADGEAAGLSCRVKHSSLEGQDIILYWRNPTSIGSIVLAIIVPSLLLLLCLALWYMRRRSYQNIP
T5 sequence (P06126 17-327): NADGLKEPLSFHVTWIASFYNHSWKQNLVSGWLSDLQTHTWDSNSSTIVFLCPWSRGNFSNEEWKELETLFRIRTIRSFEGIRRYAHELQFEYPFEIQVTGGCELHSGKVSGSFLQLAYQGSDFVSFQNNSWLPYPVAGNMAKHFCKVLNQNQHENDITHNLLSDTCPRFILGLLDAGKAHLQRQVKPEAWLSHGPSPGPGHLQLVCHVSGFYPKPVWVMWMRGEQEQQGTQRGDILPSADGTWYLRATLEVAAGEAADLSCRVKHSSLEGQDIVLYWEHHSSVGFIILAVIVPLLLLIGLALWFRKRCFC

Binder | binding result (human CD1d) | binding result (murine CD1d [1]) | D-value (murine CD1a) | D-value (murine CD1d [2]) | EC50 (read off the curve) (human CD1a [3]) [microgr/ml] | binding result (human CD1c) | binding result (human CD1b) | binding result (human CD1a [4]) | IC50 (read off the curve) (human CD1a [5]) [µg/mL] | IC50 (read off the curve) (human CD1a [6]) [µg/mL] | IC50 (read off the curve) (human CD1a [7]) [µg/mL]
B1 | no binding | no binding | 0 | 0 | ~2 | binds | no binding | – | – | – | –
B2 | no binding | no binding | 0 | 0 | – | – | no binding | binds | – | – | –
B3 | no binding | no binding | 0 | 0 | – | binds | no binding | – | – | – | –
B4 | no binding | no binding | 0 | 0 | ~0.1 | – | no binding | – | ~0.5 | ~3 | ~0.6
B5 | no binding | no binding | – | 0 | – | – | no binding | – | – | – | –
